B1: Plexin-A2 (Mus musculus), P70207 (parent)
chain: MEQRRFYLRAMQADNLSVVLLSVAWLLLARGTTGMPQYSTFHSENRDWTFNHLTVHRRTGAVYVGAINRVYKLTGNLTIQVAHKTGPEEDNKACYPPLIVQPCSEVLTLTNNVNKLLIIDYSENRLLACGSLYQGVCKLLRLDDLFILVEPSHKKEHYLSSVNKTGTMYGVIVRSEGEDGKLFIGTAVDGKQDYFPTLSSRKLPRDPESSAMLDYELHSDFVSSLIKIPSDTLALVSHFDIFYIYGFASGGFVYFLTVQPETPDGMAINSAGDLFYTSRIVRLCKDDPKFHSYVSLPFGCTRAGVEYRLLQAAYLAKPGEALAQAFNISSDEDVLFAIFSKGQKQYHHPPDDSALCAFPIRAINLQIKERLQSCYHGEGNLELNWLLGKDVQCTKAPVPIDDNFCGLDINQPLGGSTPVEGLTLYTTSRDRLTSVASYVYNGYSVVFVGTKSGKLKKIRADGPPHGGVQYEMVSVFKDGSPILRDMAFSINQLYLYVMSERQVTRVPVESCEQYTTCGECLSSGDPHCGWCALHNMCSRRDKCQRAWEANRFAASISQCMSLEVHPNSISVSDHSRLLSLVVNDAPNLSEGIACAFGNLTEVEGQVSGSQVICISPGPKDVPVIPLDQDWFGLELQLRSKETGKIFVSTEFKFYNCSAHQLCLSCVNSAFRCHWCKYRNLCTHDPTTCSFQEGRINVSEDCPQLVPTEEILIPVGEVKPITLKARNLPQPQSGQRGYECVLSIQGAVHRVPALRFNSSSVQCQNSSYQYDGMDISNLAVDFAVVWNGNFIIDNPQDLKVHLYKCAAQRESCGLCLKADHKFECGWCSGERRCTLHQHCPSTSSPWLDWSSHNVKCSNPQITEILTVSGPPEGGTRVTIHGVNLGLDFSEIAHHVQVAGVPCTPIPGEYIIAEQIVCEMGHAVIGTTSGPVRLCIGECKPEFMTKSHQQYTFVNPSVLSLSPIRGPESGGTMVTITGHYLGAGSSVAVYLGNQTCEFYGRSMNEIVCVSPPSSNGLGPVPVSVSVDRARVDSSLQFEYIDDPRVQRIEPEWSITSGHTPLTITGFNLDVIQEPRVRVKFNGKESVNVCTVVNTTTLTCLAPSLTSDYRPGLDTVERPDEFGFLFNNVQSLLIYNDTKFIYYPNPTFELLSPTGILDQKPGSPIILKGKNLCPPASGGAKLNYTVMIGETPCTVTVSETQLLCEPPNLTGQHKVMVHVGGMVFSPGSVSVISDSLLTLPAIISIAAGGSLLLIIVIIVLIAYKRKSRENDLTLKRLQMQMDNLESRVALECKEAFAELQTDINELTSDLDRSGIPYLDYRTYAMRVLFPGIEDHPVLRELEVQGNGQQHVEKALKLFAQLINNKVFLLTFIRTLELQRSFSMRDRGNVASLIMTGLQGRLEYATDVLKQLLSDLIDKNLENKNHPKLLLRRTESVAEKMLTNWFAFLLHKFLKECAGEPLFMLYCAIKQQMEKGPIDAITGEARYSLSEDKLIRQQIEYKTLILNCVNPDNENSPEIPVKVLNCDTITQVKEKILDAVYKNVPYSQRPRAVDMDLEWRQGRIARVVLQDEDITTKIEGDWKRLNTLMHYQVSDRSVVALVPKQTSSYNIPASASISRTSISRYDSSFRYTGSPDSLRSRVPMITPDLESGVKVWHLVKNHDHGDQKEGDRGSKMVSEIYLTRLLATKGTLQKFVDDLFETLFSTVHRGSALPLAIKYMFDFLDEQADRHSIHDTDVRHTWKSNCLPLRFWVNVIKNPQFVFDIHKGSITDACLSVVAQTFMDSCSTSEHRLGKDSPSNKLLYAKDIPSYKNWVERYYADIAKLPAISDQDMNAYLAEQSRLHATEFNMLSALNEIYSYVSKYSEELIGALEQDEQARRQRLAYKVEHLINAMSIES
partner: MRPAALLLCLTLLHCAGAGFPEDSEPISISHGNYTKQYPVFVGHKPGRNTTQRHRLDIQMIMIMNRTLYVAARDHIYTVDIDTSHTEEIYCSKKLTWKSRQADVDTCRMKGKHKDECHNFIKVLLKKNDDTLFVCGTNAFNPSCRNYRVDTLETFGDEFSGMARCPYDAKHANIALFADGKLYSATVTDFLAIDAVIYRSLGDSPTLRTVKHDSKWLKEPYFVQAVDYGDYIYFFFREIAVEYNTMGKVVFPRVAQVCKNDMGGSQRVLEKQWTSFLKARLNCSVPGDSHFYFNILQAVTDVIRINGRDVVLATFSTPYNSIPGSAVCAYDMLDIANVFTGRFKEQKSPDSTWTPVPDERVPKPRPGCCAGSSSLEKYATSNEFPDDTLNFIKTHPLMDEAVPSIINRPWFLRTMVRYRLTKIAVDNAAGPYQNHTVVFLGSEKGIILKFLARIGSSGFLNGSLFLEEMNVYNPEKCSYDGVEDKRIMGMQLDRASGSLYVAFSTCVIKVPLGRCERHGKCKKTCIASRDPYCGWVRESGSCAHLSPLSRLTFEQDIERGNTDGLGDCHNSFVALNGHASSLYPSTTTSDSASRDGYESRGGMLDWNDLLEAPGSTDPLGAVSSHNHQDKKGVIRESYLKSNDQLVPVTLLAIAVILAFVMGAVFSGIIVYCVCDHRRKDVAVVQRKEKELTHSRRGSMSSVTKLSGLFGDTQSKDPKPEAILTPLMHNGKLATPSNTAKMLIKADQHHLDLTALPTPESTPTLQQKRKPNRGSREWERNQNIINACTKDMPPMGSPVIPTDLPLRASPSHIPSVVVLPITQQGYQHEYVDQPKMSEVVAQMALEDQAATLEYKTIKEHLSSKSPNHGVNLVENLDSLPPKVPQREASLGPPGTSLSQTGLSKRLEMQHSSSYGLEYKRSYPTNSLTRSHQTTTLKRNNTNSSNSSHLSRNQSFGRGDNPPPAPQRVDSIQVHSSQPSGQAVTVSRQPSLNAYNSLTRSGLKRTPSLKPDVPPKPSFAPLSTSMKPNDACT
B2: Semaphorin-6A (Mus musculus), O35464-1 (parent)
chain: B1 partner

In one experiment the parent is B1. The following applies: with Sema6a.
As for F221R, the “effect of a mutation on the interaction” value is “disrupting interaction”.

A396E: the “effect of a mutation on the interaction” value is reported as “disrupting interaction”.

The variants in a further experiment derive from B2. Particulars: with plxa2_mouse Plxna2, P70207.
With L191R, the “effect of a mutation on the interaction” value is “decreasing interaction”.

These data come from IntAct's records for PubMed 20877282.
